The target of assay [1] is T1, EGFR-AP fusion protein (UniProt P00533 25-645).
T1 construct: Immobilised on the BIAcore sensor chip; Neither the species nor the residues of the EGFR part are stated
The assay is described as follows: BIAcore SPR, EGFR-AP immobilised on the chip. For orientation: Surface plasmon resonance follows binding to a sensor surface in real time, without labels.
Method: (§1) Sensorgrams were obtained at each concentration and were analyzed with BIA Evaluation 2.0, a program to determine the rate constants, kₒₙ and koff. The affinity constant, Kd, was calculated from the ratio of rate constants, koff/kₒₙ.

Assay [2] deals with T1, EGFR-AP fusion protein. In words: BIAcore SPR, EGFR-AP immobilised on the chip; koff/kon.
Method: as §1

B1: IMC-11F8 Fab (Fab, V domains shown)
VH: QVQLQESGPGLVKPSQTLSLTCTVSGGSISSGDYYWSWIRQPPGKGLEWIGYIYYSGSTDYNPSLKSRVTMSVDTSKNQFSLKVNSVTAADTAVYYCARVSIFGVGTFDYWGQGTLVTVSS
VL: EIVMTQSPATLSLSPGERATLSCRASQSVSSYLAWYQQKPGQAPRLLIYDASNRATGIPARFSGSGSGTDFTLTISSLEPEDFAVYYCHQYGSTPLTFGGGTKAEIK
In the case of B1, in assay [1], the koff (as a rule, the rate constant with which the complex falls apart) was found to be 0.00367 s⁻¹ and the kon – broadly, a measure of how fast the partners come together – stood at 2.29e+06 M⁻¹ s⁻¹. Moreover, the affinity in assay [2], expressed as Kd, was 1.78 nM.

B2: IMC-11F8 (full human IgG1 anti-EGFR antibody) (antibody, V domains shown)
VH: QVQLQESGPGLVKPSQTLSLTCTVSGGSISSGDYYWSWIRQPPGKGLEWIGYIYYSGSTDYNPSLKSRVTMSVDTSKNQFSLKVNSVTAADTAVYYCARVSIFGVGTFDYWGQGTLVTVSS
VL: EIVMTQSPATLSLSPGERATLSCRASQSVSSYLAWYQQKPGQAPRLLIYDASNRATGIPARFSGSGSGTDFTLTISSLEPEDFAVYYCHQYGSTPLTFGGGTKAEIK
notes: also called IMC-C11F8; 11F8 monoclonal antibody
In assay [1], B2 showed an off-rate constant (koff) of 0.00058 s⁻¹ and an on-rate (kon) of 1.86e+06 M⁻¹ s⁻¹. The Kd (usually a measure of binding affinity in units of concentration) in assay [2] came out at 0.32 nM.

Values taken from patent US20070264253A1 (Eli Lilly, published 2007).
